Assay results from publication PMC9974832.
Several values for one entry are separate records, joined by “and”; a condition that tells them apart may be missing. Identical values can stand only once.

Tests used:
[1] = target: pyruvate kinase (PK) M2 (PKM2) (mouse) (mouse (endogenous in isolated glomeruli)) (UniProt P52480); experiment: cross-linking; lysates of mouse glomeruli or HRMCs (sodium phosphate buffer pH 7.3, 0.5% Triton X-100), 0.01% glutaraldehyde 5 min 37°C, stopped with 50 mM Tris-Cl pH 8.0; 10% SDS-PAGE, blot with anti-PKM2; samples from db/m, db/db, AAV-shARAP1 mice; NG/HG, ARAP1 shRNA, ARAP1 overexpression, AG1478 in cells
[2] = target: pyruvate kinase (PK) M2 (PKM2) (human (endogenous in HRMCs)) (UniProt P14618); experiment: as above

Sequence of pyruvate kinase (PK) M2 (PKM2) (mouse), P52480 1-531 (enzyme; other documents disagree on this pair) (P52480 whole entry): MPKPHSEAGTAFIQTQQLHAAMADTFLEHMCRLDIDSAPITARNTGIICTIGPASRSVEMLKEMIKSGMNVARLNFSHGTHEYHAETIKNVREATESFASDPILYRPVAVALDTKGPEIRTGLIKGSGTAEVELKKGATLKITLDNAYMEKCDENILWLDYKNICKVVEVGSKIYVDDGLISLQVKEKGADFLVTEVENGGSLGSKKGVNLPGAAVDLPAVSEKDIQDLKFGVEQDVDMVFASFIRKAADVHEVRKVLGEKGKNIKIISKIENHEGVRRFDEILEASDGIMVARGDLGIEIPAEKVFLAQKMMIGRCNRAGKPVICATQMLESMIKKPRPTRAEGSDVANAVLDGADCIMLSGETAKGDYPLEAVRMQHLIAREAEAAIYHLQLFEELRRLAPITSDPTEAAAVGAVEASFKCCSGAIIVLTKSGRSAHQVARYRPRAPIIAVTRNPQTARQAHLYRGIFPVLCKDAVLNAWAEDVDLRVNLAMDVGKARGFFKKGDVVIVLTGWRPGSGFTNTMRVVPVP
Sequence of pyruvate kinase (PK) M2 (PKM2), P14618 1-531 (enzyme; other documents disagree on this pair) (P14618 whole entry): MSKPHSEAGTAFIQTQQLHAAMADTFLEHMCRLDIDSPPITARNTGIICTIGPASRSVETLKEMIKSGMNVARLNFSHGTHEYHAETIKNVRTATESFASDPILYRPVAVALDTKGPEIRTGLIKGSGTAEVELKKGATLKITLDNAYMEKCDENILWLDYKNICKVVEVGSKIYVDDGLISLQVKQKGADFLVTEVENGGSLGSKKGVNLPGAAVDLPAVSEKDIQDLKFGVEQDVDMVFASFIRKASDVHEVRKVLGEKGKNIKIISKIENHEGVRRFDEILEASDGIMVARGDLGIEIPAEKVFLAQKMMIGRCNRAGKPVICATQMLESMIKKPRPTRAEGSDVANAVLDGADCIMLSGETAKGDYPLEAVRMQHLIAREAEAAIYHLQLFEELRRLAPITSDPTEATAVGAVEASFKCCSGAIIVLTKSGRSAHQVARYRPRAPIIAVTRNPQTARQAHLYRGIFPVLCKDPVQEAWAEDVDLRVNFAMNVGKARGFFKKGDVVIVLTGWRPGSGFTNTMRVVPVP

Row | stoichiometry N [1] | stoichiometry N [2] | Substance
1 | 2 and 4 | – | pyruvate kinase (PK) M2 (PKM2) (mouse), P52480 1-531 (enzyme; other documents disagree on this pair)
2 | – | 2 | pyruvate kinase (PK) M2 (PKM2), P14618 1-531 (enzyme; other documents disagree on this pair)
